From US20220204580A1 (AstraZeneca / MedImmune, published 2022)
Numbered stars: 1 amine (or outer) side, 2 acyl side, 3 side chain; on linkers, the order of the positions; unused ones are H or OH. Bridge positions count the residues as written; N and C are the ends. Square brackets hold non-standard residues; d marks the D form. Side chains are listed from the residue outwards. Ends that are not written are not given here. * marks the point of attachment. C18 diacid = O=C(O)CCCCCCCCCCCCCCCCC(=O)*; γGlu = O=C(O)[C@H](CCC(=O)[*:2])N[*:1]; Aib = CC(C)(N)C(=O)O

Key:
[1] = biological target: T1, human calcitonin receptor (human, UniProt P30988 25-474); assay: cell-based or functional assay
T1 sequence (looked up): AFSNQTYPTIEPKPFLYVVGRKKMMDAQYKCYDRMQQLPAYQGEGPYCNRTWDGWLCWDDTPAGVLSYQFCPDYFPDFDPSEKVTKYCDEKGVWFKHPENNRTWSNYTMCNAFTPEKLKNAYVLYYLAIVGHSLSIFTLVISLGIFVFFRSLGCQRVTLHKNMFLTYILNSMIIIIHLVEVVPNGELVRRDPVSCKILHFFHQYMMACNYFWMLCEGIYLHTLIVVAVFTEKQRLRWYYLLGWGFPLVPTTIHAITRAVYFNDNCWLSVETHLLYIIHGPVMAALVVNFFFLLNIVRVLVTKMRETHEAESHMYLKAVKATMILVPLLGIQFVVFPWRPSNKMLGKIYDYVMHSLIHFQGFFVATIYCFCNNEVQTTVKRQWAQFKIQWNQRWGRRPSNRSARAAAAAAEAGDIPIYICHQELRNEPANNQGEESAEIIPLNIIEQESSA

[2] = biological target: T2, human amylin receptor (calcitonin receptor co-expressed with receptor activity modifying protein, RAMP3) (human, UniProt P30988 25-474; O60896 24-148); assay: cell-based or functional assay
T2 sequence (looked up) 1: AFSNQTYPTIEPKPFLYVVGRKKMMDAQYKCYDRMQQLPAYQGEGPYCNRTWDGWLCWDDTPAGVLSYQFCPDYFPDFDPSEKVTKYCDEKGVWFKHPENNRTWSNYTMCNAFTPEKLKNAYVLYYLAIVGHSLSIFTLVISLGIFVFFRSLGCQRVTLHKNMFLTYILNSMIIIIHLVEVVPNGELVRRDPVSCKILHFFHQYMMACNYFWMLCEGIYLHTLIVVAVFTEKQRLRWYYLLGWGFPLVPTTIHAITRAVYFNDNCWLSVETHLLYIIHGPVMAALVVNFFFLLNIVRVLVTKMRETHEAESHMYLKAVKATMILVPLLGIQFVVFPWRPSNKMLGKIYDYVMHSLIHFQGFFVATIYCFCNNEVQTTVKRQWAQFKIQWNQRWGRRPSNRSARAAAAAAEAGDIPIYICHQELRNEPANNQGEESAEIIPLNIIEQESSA
T2 sequence (looked up) 2: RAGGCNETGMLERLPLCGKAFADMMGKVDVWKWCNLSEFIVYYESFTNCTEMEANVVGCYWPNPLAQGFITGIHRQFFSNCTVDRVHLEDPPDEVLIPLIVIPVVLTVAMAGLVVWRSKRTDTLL

B1: Peptide 89 (SEQ ID NO: 89) (peptide)
peptide: K([γGlu-γGlu-C18 diacid])CNTATCATQRLANFLVHSS[Aib]NFGPILPPT[Aib]VGSNTY-NH2
modifications: disulfide 2-7
EC50 (cAMP production) [1]: 8.24 nM | EC50 (cAMP production) [2]: 0.447 nM | Ratio (EC50 hCTR / EC50 hAMYR3) [2]: 18

B2: Peptide 90 (SEQ ID NO: 90) (peptide)
peptide: K([γGlu-γGlu-C18 diacid])CNTATCATQRLANFLRHSS[Aib]NFGPILPPT[Aib]VGSNTY-NH2
modifications: disulfide 2-7; N-terminus assumed
SMILES: CC[C@H](C)[C@H](NC(=O)[C@@H]1CCCN1C(=O)CNC(=O)[C@H](Cc1ccccc1)NC(=O)[C@H](CC(N)=O)NC(=O)C(C)(C)NC(=O)[C@H](CO)NC(=O)[C@H](CO)NC(=O)[C@H](Cc1c[nH]cn1)NC(=O)[C@H](CCCNC(=N)N)NC(=O)[C@H](CC(C)C)NC(=O)[C@H](Cc1ccccc1)NC(=O)[C@H](CC(N)=O)NC(=O)[C@H](C)NC(=O)[C@H](CC(C)C)NC(=O)[C@H](CCCNC(=N)N)NC(=O)[C@H](CCC(N)=O)NC(=O)[C@@H](NC(=O)[C@H](C)NC(=O)[C@@H]1CSSC[C@H](NC(=O)[C@@H](N)CCCCNC(=O)CC[C@H](NC(=O)CC[C@H](NC(=O)CCCCCCCCCCCCCCCCC(=O)O)C(=O)O)C(=O)O)C(=O)N[C@@H](CC(N)=O)C(=O)N[C@@H]([C@@H](C)O)C(=O)N[C@@H](C)C(=O)N[C@@H]([C@@H](C)O)C(=O)N1)[C@@H](C)O)C(=O)N[C@@H](CC(C)C)C(=O)N1CCC[C@H]1C(=O)N1CCC[C@H]1C(=O)N[C@H](C(=O)NC(C)(C)C(=O)N[C@H](C(=O)NCC(=O)N[C@@H](CO)C(=O)N[C@@H](CC(N)=O)C(=O)N[C@H](C(=O)N[C@@H](Cc1ccc(O)cc1)C(N)=O)[C@@H](C)O)C(C)C)[C@@H](C)O
EC50 (cAMP production) [1]: 15.6 nM | EC50 (cAMP production) [2]: 1.06 nM | Ratio (EC50 hCTR / EC50 hAMYR3) [2]: 15

B3: Peptide 91 (SEQ ID NO: 91) (peptide)
peptide: K([γGlu-γGlu-C18 diacid])CNTATCATQRLANFLVHSS[Aib]NFGPILPPTNVGS[Aib]TY-NH2
modifications: disulfide 2-7; N-terminus assumed
SMILES: CC[C@H](C)[C@H](NC(=O)[C@@H]1CCCN1C(=O)CNC(=O)[C@H](Cc1ccccc1)NC(=O)[C@H](CC(N)=O)NC(=O)C(C)(C)NC(=O)[C@H](CO)NC(=O)[C@H](CO)NC(=O)[C@H](Cc1c[nH]cn1)NC(=O)[C@@H](NC(=O)[C@H](CC(C)C)NC(=O)[C@H](Cc1ccccc1)NC(=O)[C@H](CC(N)=O)NC(=O)[C@H](C)NC(=O)[C@H](CC(C)C)NC(=O)[C@H](CCCNC(=N)N)NC(=O)[C@H](CCC(N)=O)NC(=O)[C@@H](NC(=O)[C@H](C)NC(=O)[C@@H]1CSSC[C@H](NC(=O)[C@@H](N)CCCCNC(=O)CC[C@H](NC(=O)CC[C@H](NC(=O)CCCCCCCCCCCCCCCCC(=O)O)C(=O)O)C(=O)O)C(=O)N[C@@H](CC(N)=O)C(=O)N[C@@H]([C@@H](C)O)C(=O)N[C@@H](C)C(=O)N[C@@H]([C@@H](C)O)C(=O)N1)[C@@H](C)O)C(C)C)C(=O)N[C@@H](CC(C)C)C(=O)N1CCC[C@H]1C(=O)N1CCC[C@H]1C(=O)N[C@H](C(=O)N[C@@H](CC(N)=O)C(=O)N[C@H](C(=O)NCC(=O)N[C@@H](CO)C(=O)NC(C)(C)C(=O)N[C@H](C(=O)N[C@@H](Cc1ccc(O)cc1)C(N)=O)[C@@H](C)O)C(C)C)[C@@H](C)O
EC50 (cAMP production) [1]: 2.36 nM | EC50 (cAMP production) [2]: 0.2 nM | Ratio (EC50 hCTR / EC50 hAMYR3) [2]: 12

B4: Peptide 88 (SEQ ID NO: 88) (peptide)
peptide: K([γGlu-C18 diacid])KCNTATCATQRLANFLVHSS[Aib]NFGPIL[Aib]PTNVGSNTY-NH2
modifications: disulfide 3-8; N-terminus assumed
SMILES: CC[C@H](C)[C@H](NC(=O)[C@@H]1CCCN1C(=O)CNC(=O)[C@H](Cc1ccccc1)NC(=O)[C@H](CC(N)=O)NC(=O)C(C)(C)NC(=O)[C@H](CO)NC(=O)[C@H](CO)NC(=O)[C@H](Cc1c[nH]cn1)NC(=O)[C@@H](NC(=O)[C@H](CC(C)C)NC(=O)[C@H](Cc1ccccc1)NC(=O)[C@H](CC(N)=O)NC(=O)[C@H](C)NC(=O)[C@H](CC(C)C)NC(=O)[C@H](CCCNC(=N)N)NC(=O)[C@H](CCC(N)=O)NC(=O)[C@@H](NC(=O)[C@H](C)NC(=O)[C@@H]1CSSC[C@H](NC(=O)[C@H](CCCCN)NC(=O)[C@@H](N)CCCCNC(=O)CC[C@H](NC(=O)CCCCCCCCCCCCCCCCC(=O)O)C(=O)O)C(=O)N[C@@H](CC(N)=O)C(=O)N[C@@H]([C@@H](C)O)C(=O)N[C@@H](C)C(=O)N[C@@H]([C@@H](C)O)C(=O)N1)[C@@H](C)O)C(C)C)C(=O)N[C@@H](CC(C)C)C(=O)NC(C)(C)C(=O)N1CCC[C@H]1C(=O)N[C@H](C(=O)N[C@@H](CC(N)=O)C(=O)N[C@H](C(=O)NCC(=O)N[C@@H](CO)C(=O)N[C@@H](CC(N)=O)C(=O)N[C@H](C(=O)N[C@@H](Cc1ccc(O)cc1)C(N)=O)[C@@H](C)O)C(C)C)[C@@H](C)O
EC50 (cAMP production) [1]: 1.17 nM | EC50 (cAMP production) [2]: 0.281 nM | Ratio (EC50 hCTR / EC50 hAMYR3) [2]: 4

B5: Peptide 87 (SEQ ID NO: 87) (peptide)
peptide: K([γGlu-C18 diacid])KCNTATCATQRLANFL[Aib]HSS[Aib]NFGPILPPTNVGSNTP-NH2
modifications: disulfide 3-8; N-terminus assumed
SMILES: CC[C@H](C)[C@H](NC(=O)[C@@H]1CCCN1C(=O)CNC(=O)[C@H](Cc1ccccc1)NC(=O)[C@H](CC(N)=O)NC(=O)C(C)(C)NC(=O)[C@H](CO)NC(=O)[C@H](CO)NC(=O)[C@H](Cc1c[nH]cn1)NC(=O)C(C)(C)NC(=O)[C@H](CC(C)C)NC(=O)[C@H](Cc1ccccc1)NC(=O)[C@H](CC(N)=O)NC(=O)[C@H](C)NC(=O)[C@H](CC(C)C)NC(=O)[C@H](CCCNC(=N)N)NC(=O)[C@H](CCC(N)=O)NC(=O)[C@@H](NC(=O)[C@H](C)NC(=O)[C@@H]1CSSC[C@H](NC(=O)[C@H](CCCCN)NC(=O)[C@@H](N)CCCCNC(=O)CC[C@H](NC(=O)CCCCCCCCCCCCCCCCC(=O)O)C(=O)O)C(=O)N[C@@H](CC(N)=O)C(=O)N[C@@H]([C@@H](C)O)C(=O)N[C@@H](C)C(=O)N[C@@H]([C@@H](C)O)C(=O)N1)[C@@H](C)O)C(=O)N[C@@H](CC(C)C)C(=O)N1CCC[C@H]1C(=O)N1CCC[C@H]1C(=O)N[C@H](C(=O)N[C@@H](CC(N)=O)C(=O)N[C@H](C(=O)NCC(=O)N[C@@H](CO)C(=O)N[C@@H](CC(N)=O)C(=O)N[C@H](C(=O)N1CCC[C@H]1C(N)=O)[C@@H](C)O)C(C)C)[C@@H](C)O
EC50 (cAMP production) [1]: 0.074 nM | EC50 (cAMP production) [2]: 0.071 nM | Ratio (EC50 hCTR / EC50 hAMYR3) [2]: 1

B6: Peptide 86 (SEQ ID NO: 86) (peptide)
peptide: K([γGlu-C18 diacid])KCNTATCATQRLAHFL[Aib]HSS[Aib]NFGPILPPTEVGSNTY-NH2
modifications: disulfide 3-8; N-terminus assumed
SMILES: CC[C@H](C)[C@H](NC(=O)[C@@H]1CCCN1C(=O)CNC(=O)[C@H](Cc1ccccc1)NC(=O)[C@H](CC(N)=O)NC(=O)C(C)(C)NC(=O)[C@H](CO)NC(=O)[C@H](CO)NC(=O)[C@H](Cc1c[nH]cn1)NC(=O)C(C)(C)NC(=O)[C@H](CC(C)C)NC(=O)[C@H](Cc1ccccc1)NC(=O)[C@H](Cc1c[nH]cn1)NC(=O)[C@H](C)NC(=O)[C@H](CC(C)C)NC(=O)[C@H](CCCNC(=N)N)NC(=O)[C@H](CCC(N)=O)NC(=O)[C@@H](NC(=O)[C@H](C)NC(=O)[C@@H]1CSSC[C@H](NC(=O)[C@H](CCCCN)NC(=O)[C@@H](N)CCCCNC(=O)CC[C@H](NC(=O)CCCCCCCCCCCCCCCCC(=O)O)C(=O)O)C(=O)N[C@@H](CC(N)=O)C(=O)N[C@@H]([C@@H](C)O)C(=O)N[C@@H](C)C(=O)N[C@@H]([C@@H](C)O)C(=O)N1)[C@@H](C)O)C(=O)N[C@@H](CC(C)C)C(=O)N1CCC[C@H]1C(=O)N1CCC[C@H]1C(=O)N[C@H](C(=O)N[C@@H](CCC(=O)O)C(=O)N[C@H](C(=O)NCC(=O)N[C@@H](CO)C(=O)N[C@@H](CC(N)=O)C(=O)N[C@H](C(=O)N[C@@H](Cc1ccc(O)cc1)C(N)=O)[C@@H](C)O)C(C)C)[C@@H](C)O
EC50 (cAMP production) [1]: 0.311 nM | EC50 (cAMP production) [2]: 0.119 nM | Ratio (EC50 hCTR / EC50 hAMYR3) [2]: 3
